From paper PMC2631628 come the findings set out here.

For data set [1], the target named is hnRNP A1 (UniProt P09651). As to the kind of experiment: competition. The note with it: Footprinting: RNA refolded in 2 mM MgCl2, 80 mM NaCl, 20 mM Tris-HCl pH 7.2; probing at 37 C for 10 min; EMSA and pull-down buffers not in the material. In general terms: A gel shift assay detects complexes by their altered migration in electrophoresis.
Data set [2] concerns the target hnRNP A1 (UniProt P09651). As to the kind of experiment: footprinting (Pb(II)). To be noted: Footprinting: RNA refolded in 2 mM MgCl2, 80 mM NaCl, 20 mM Tris-HCl pH 7.2; probing at 37 C for 10 min; EMSA and pull-down buffers not in the material.

Sequence of hnRNP A1 (P09651 whole entry): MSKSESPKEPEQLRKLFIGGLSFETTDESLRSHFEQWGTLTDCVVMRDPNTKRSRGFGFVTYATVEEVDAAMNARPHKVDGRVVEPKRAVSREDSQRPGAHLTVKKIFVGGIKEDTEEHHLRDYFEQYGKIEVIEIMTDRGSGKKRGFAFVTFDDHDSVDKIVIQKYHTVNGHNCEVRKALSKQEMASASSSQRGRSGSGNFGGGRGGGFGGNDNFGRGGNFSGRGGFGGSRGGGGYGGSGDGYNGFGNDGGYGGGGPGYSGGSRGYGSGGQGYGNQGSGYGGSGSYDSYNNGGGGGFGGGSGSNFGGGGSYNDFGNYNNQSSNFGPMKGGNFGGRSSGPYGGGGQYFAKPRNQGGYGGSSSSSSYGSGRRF

With “GGCGUGCAGGGCCUGCUGAUGUUGAGUGCUUUUUGUUCUAAGGUGCAUCUAGUGCAGAUAGUGAAGUAGAUUAGCAUCUACUGCCCUAAGUGCUCCUUCUGGCAUAAGAAGUUAUGUAUUCAUCCAAUAAUUC [pri-miR-18a]”, in the data set with hnRNP A1 [1], the binding result is “binds”.

Turning to “GGUGUUCUAAGGUGCAUCUAGUGCAGAUAGUGAAGUAGAUUAGCAUCUACUGCCCUAAGUGCUCCUUCUGGCA [pri-miR-18a_73nt]”, the binding entry with hnRNP A1 [2] is “binds”.
